± gives the standard deviation of the averaged measurements.
B1: library; a variant is named by its letters at N, in order (parent)
chain: GCUGUCACCGGUGUAUUACCCUAGUGGUCGACCGGUCUGAUGAGUCUNNNNNNAGACGAAACAGC

Key:
hypoxanthine [1] = variants of: B1; test: normalized RNA/DNA level with ligand (relative to sTRSVctl = 100) (log10 (% of sTRSVctl)); ligand: hypoxanthine (xanthine aptamer); higher = less ribozyme self-cleavage, higher mRNA level; details: ligand concentration (+) RNA-Seq: 5 mM, HEK293T, reporter: mCherry (pCS4076), ligand present: yes
Procedure, shortened: (§1)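 HEK293T cells received ligand, where used, 1 h before being transfected with 4 µg per 6-well well of library plasmids encoding reporter-linked ribozyme switches. After 72 h, RNA was extracted with EDTA and sequenced. RNA level was derived from RNA reads per DNA read, normalized to a spiked-in non-cleaving sequence or the top sequences, then scaled and log-transformed. Values were ×100 then log10, the top set was 25 sequences, and the minimum was 100 DNA reads.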

hypoxanthine [2] = variants of: B1; test: normalized RNA/DNA level without ligand (relative to sTRSVctl = 100) (log10 (% of sTRSVctl)); ligand: hypoxanthine (xanthine aptamer); higher = less ribozyme self-cleavage, higher mRNA level; details: HEK293T, reporter: mCherry (pCS4076), ligand present: no
Procedure, shortened: as §1

| Variant | normalized RNA/DNA level with ligand (log10) (hypoxanthine [1]) | normalized RNA/DNA level without ligand (log10) (hypoxanthine [2]) |
| --- | --- | --- |
| GCUGUCACCGGUGUAUUACCCUAGUGGUCGACCGGUCUGAUGAGUCUCAUAGCAGACGAAACAGC | 1.923 ± 0.0099 | 1.86 ± 0.014 |
| GCUGUCACCGGUGUAUUACCCUAGUGGUCGACCGGUCUGAUGAGUCUCAUAGUAGACGAAACAGC | 2 ± 0.039 | 1.88 ± 0.019 |
| GCUGUCACCGGUGUAUUACCCUAGUGGUCGACCGGUCUGAUGAGUCUCAUAUAAGACGAAACAGC | 1.9 ± 0.027 | 1.73 ± 0.028 |
| GCUGUCACCGGUGUAUUACCCUAGUGGUCGACCGGUCUGAUGAGUCUCAUAUCAGACGAAACAGC | 1.95 ± 0.0088 | 1.9 ± 0.012 |
| GCUGUCACCGGUGUAUUACCCUAGUGGUCGACCGGUCUGAUGAGUCUGAUAGUAGACGAAACAGC | 1.88 ± 0.059 | 1.72 ± 0.034 |
| GCUGUCACCGGUGUAUUACCCUAGUGGUCGACCGGUCUGAUGAGUCUGAUAGCAGACGAAACAGC | 1.87 ± 0.025 | 1.55 ± 0.097 |
| GCUGUCACCGGUGUAUUACCCUAGUGGUCGACCGGUCUGAUGAGUCUGAUAUCAGACGAAACAGC | 1.91 ± 0.03 | 1.908 ± 0.0029 |
| GCUGUCACCGGUGUAUUACCCUAGUGGUCGACCGGUCUGAUGAGUCUUAUACCAGACGAAACAGC | 1.95 ± 0.12 | 1.88 ± 0.014 |
| GCUGUCACCGGUGUAUUACCCUAGUGGUCGACCGGUCUGAUGAGUCUUAUACGAGACGAAACAGC | 1.83 ± 0.042 | 1.686 ± 0.008 |
| GCUGUCACCGGUGUAUUACCCUAGUGGUCGACCGGUCUGAUGAGUCUGAUAACAGACGAAACAGC | 1.92 ± 0.079 | 1.712 ± 0.0033 |
| GCUGUCACCGGUGUAUUACCCUAGUGGUCGACCGGUCUGAUGAGUCUUAUAUCAGACGAAACAGC | 1.94 ± 0.044 | 1.936 ± 0.0031 |
| GCUGUCACCGGUGUAUUACCCUAGUGGUCGACCGGUCUGAUGAGUCUUAGUUAAGACGAAACAGC | 1.942 ± 0.013 | 1.861 ± 0.0033 |
| GCUGUCACCGGUGUAUUACCCUAGUGGUCGACCGGUCUGAUGAGUCUUAGUUUAGACGAAACAGC | 1.92 ± 0.04 | 1.86 ± 0.023 |
| GCUGUCACCGGUGUAUUACCCUAGUGGUCGACCGGUCUGAUGAGUCUUAGUUCAGACGAAACAGC | 1.943 ± 0.0072 | 1.87 ± 0.008 |
| GCUGUCACCGGUGUAUUACCCUAGUGGUCGACCGGUCUGAUGAGUCUUAGUUGAGACGAAACAGC | 1.93 ± 0.053 | 1.707 ± 0.0035 |
| GCUGUCACCGGUGUAUUACCCUAGUGGUCGACCGGUCUGAUGAGUCUGAUACCAGACGAAACAGC | 1.95 ± 0.03 | 1.875 ± 0.016 |
| GCUGUCACCGGUGUAUUACCCUAGUGGUCGACCGGUCUGAUGAGUCUGAUACUAGACGAAACAGC | 1.94 ± 0.069 | 1.87 ± 0.029 |
| GCUGUCACCGGUGUAUUACCCUAGUGGUCGACCGGUCUGAUGAGUCUCAGUUCAGACGAAACAGC | 1.91 ± 0.11 | 1.81 ± 0.031 |
| GCUGUCACCGGUGUAUUACCCUAGUGGUCGACCGGUCUGAUGAGUCUCAGUUGAGACGAAACAGC | 1.93 ± 0.046 | 1.801 ± 0.015 |
| GCUGUCACCGGUGUAUUACCCUAGUGGUCGACCGGUCUGAUGAGUCUCAGUUAAGACGAAACAGC | 1.87 ± 0.055 | 1.49 ± 0.035 |
| GCUGUCACCGGUGUAUUACCCUAGUGGUCGACCGGUCUGAUGAGUCUCAGUUUAGACGAAACAGC | 1.95 ± 0.053 | 1.79 ± 0.018 |

Reference: the supplement of paper PMC6757056
